Experiments:
Test in all cases: cell-based or functional assay
[1] = molecular target: Trypsin-like protease (TL1) from Fusarium oxysporum (Fusarium oxysporum) (UniProt P35049)
[2] = molecular target: porcine trypsin (porcine) (UniProt P00761)
bovine trypsin (bovine) = bovine trypsin (bovine) (UniProt P00760)

Chain of UniProt P35049 (P35049 25-248 limits assumed): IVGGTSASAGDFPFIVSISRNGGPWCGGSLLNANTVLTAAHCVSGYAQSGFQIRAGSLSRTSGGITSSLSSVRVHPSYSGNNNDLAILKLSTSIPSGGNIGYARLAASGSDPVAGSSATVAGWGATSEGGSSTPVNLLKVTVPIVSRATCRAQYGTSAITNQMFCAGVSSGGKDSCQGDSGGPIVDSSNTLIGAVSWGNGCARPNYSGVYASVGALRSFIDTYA

Bowman-Birk inhibitor (Cat # T-9777, Sigma-Aldrich) (from UniProt P01055 40-110)
% residual activity at 0.00048 mg/ml Bowman-Birk inhibitor [1]: 117% | % residual activity at 0.00097 mg/ml Bowman-Birk inhibitor [1]: 111% | % residual activity at 0.00195 mg/ml Bowman-Birk inhibitor [1]: 103% | % residual activity at 0.0039 mg/ml Bowman-Birk inhibitor [1]: 109% | % residual activity at 0.0078 mg/ml Bowman-Birk inhibitor [1]: 82% | % residual activity at 0.0156 mg/ml Bowman-Birk inhibitor [1]: 61% | % residual activity at 0.0313 mg/ml Bowman-Birk inhibitor [1]: 32% | % residual activity at 0.0625 mg/ml Bowman-Birk inhibitor [1]: 13% | % residual activity at 0.125 mg/ml Bowman-Birk inhibitor [1]: 5.8% | % residual activity at 0.25 mg/ml Bowman-Birk inhibitor [1]: 2.2% | % residual activity at 0.5 mg/ml Bowman-Birk inhibitor [1]: 0.8% | % residual activity at 0.00048 mg/ml Bowman-Birk inhibitor [2]: 11% | % residual activity at 0.00097 mg/ml Bowman-Birk inhibitor [2]: 9.4% | % residual activity at 0.00195 mg/ml Bowman-Birk inhibitor [2]: 8.3% | % residual activity at 0.0039 mg/ml Bowman-Birk inhibitor [2]: 6.2% | % residual activity at 0.0078 mg/ml Bowman-Birk inhibitor [2]: 3.2% | % residual activity at 0.0156 mg/ml Bowman-Birk inhibitor [2]: 2.2% | % residual activity at 0.0313 mg/ml Bowman-Birk inhibitor [2]: 1% | % residual activity at 0.0625 mg/ml Bowman-Birk inhibitor [2]: 6.4% | % residual activity at 0.125 mg/ml Bowman-Birk inhibitor [2]: 0.2% | % residual activity at 0.25 mg/ml Bowman-Birk inhibitor [2]: 0.1% | % residual activity at 0.5 mg/ml Bowman-Birk inhibitor [2]: 0.1% | % residual activity at 0.00048 mg/ml Bowman-Birk inhibitor (bovine trypsin (bovine)): 6.9% | % residual activity at 0.00097 mg/ml Bowman-Birk inhibitor (bovine trypsin (bovine)): 5.3% | % residual activity at 0.00195 mg/ml Bowman-Birk inhibitor (bovine trypsin (bovine)): 0.1% | % residual activity at 0.0039 mg/ml Bowman-Birk inhibitor (bovine trypsin (bovine)): -0.4% | % residual activity at 0.0078 mg/ml Bowman-Birk inhibitor (bovine trypsin (bovine)): 0% | % residual activity at 0.0156 mg/ml Bowman-Birk inhibitor (bovine trypsin (bovine)): -1.5% | % residual activity at 0.0313 mg/ml Bowman-Birk inhibitor (bovine trypsin (bovine)): 0.1% | % residual activity at 0.0625 mg/ml Bowman-Birk inhibitor (bovine trypsin (bovine)): 0% | % residual activity at 0.125 mg/ml Bowman-Birk inhibitor (bovine trypsin (bovine)): 0% | % residual activity at 0.25 mg/ml Bowman-Birk inhibitor (bovine trypsin (bovine)): 0% | % residual activity at 0.5 mg/ml Bowman-Birk inhibitor (bovine trypsin (bovine)): 0%

— patent US20140030416A1
